Measured values taken from patent US20220227846A1 (TEMPLE UNIVERSITY OF THE COMMONWEALTH SYSTEM OF HIGHER …, published 2022).

What was measured:
Experiment in all cases: SPR, calculated KD (Qdat software)
[1] = molecular target: T1, N-terminal biotinylated Aβ42 monomers (UniProt P05067 672-713, N-terminal biotin)
T1 construct: domain: Aβ42; also called NTB mono
Experimental: (§1) MAb binding to Aβ42 conformers was measured by surface plasma resonance (SPR) (Table 1). Calculated affinity constants (KD) were obtained using Qdat software. […] The 3H3 binding data is qualitatively most similar to the 4G1 and 6E10 mAbs. 4A6 and 2C10 preferentially bind Aβ fibrils.

[2] = molecular target: T2, Aβ42 fibrils (UniProt P05067 672-713)
T2 construct: domain: Aβ42; Fibrillar conformer of Aβ42; also called Aβ fibrils
Experimental: as §1

[3] = molecular target: T3, Aβ42 oligomers (ADDLs/globulomers) (UniProt P05067 672-713)
T3 construct: domain: Aβ42; Oligomeric conformer of Aβ42; also called amyloid beta derived diffusible ligands
Experimental: as §1

[4] = molecular target: T4, C-terminal biotinylated Aβ42 monomers (UniProt P05067 672-713, C-terminal biotin)
T4 construct: domain: Aβ42; also called CTB mono
Experimental: as §1

[5] = molecular target: T5, C-terminal biotinylated Aβ42 ADDLs/globulomers (UniProt P05067 672-713, C-terminal biotin)
T5 construct: domain: Aβ42; also called CTB oligo
Experimental: as §1

T2 sequence (P05067 672-713 limits assumed): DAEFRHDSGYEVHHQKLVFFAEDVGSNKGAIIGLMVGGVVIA
T3 sequence (P05067 672-713 limits assumed): as above
T4 sequence (P05067 672-713 limits assumed): as above
T5 sequence (P05067 672-713 limits assumed): as above
T1 sequence (P05067 672-713 limits assumed): as above

B1: ALZ.4G1 (antibody, V domains shown)
VH: EEHLVESGGALVQPGGSLRLSCEASGFTFRSYWMTWVRQAPGKGLEWLANIKQDGSDYYYVDSVKGRFTISRDNAKNTLYLQMNNLRADDTAVYFCARDARYRDTTWPQYYFYYFMDVWGKGTTVTVSS
VL: DIQLTQSPSSLSASIGDRVTVTCRASQSISNYLNWYQQKPGKAPKLLIYAASNLHTGVPSRFSGSGSGTHFTLTISSLQPEDFATYYCQLSYNNPRTFGPGTTVDIR
notes: Human mAb cloned from hybridomas made from B cells of a patient with Alzheimer's Disease
Kd [1]: 1.7 µM | Kd [2]: 0.014 µM | Kd [3]: 0.0088 µM | Kd [4]: 0.015 µM | Kd [5]: 0.0114 µM

B2: ALZ.3H3 (antibody, V domains shown)
VH: QVQLVESGGGVVQPGRSLRLSCAASGFSFSTYGMHWVRQAPGKGLEWVAVISYDGSRKYYADTGKGRFTISRDNSKNTLYLEMNGLRAEDTAVYHCAKDLRRELGFGNRDYHYYGMDAWGQGTTVTVSS
VL: LTQPRSVSGSPGQSVTMSCTGTNSDIGGYNYVSWYQQHPGKAPKLMIYDVYKRPSGVPDRFSGSKSGNTASLTISGLQAEDEADYYCCSYAGTNNLIFGGGTKLTVLG
Kd [1]: 0.24 µM | Kd [2]: 0.0021 µM | Kd [3]: 0.04 µM | Kd [4]: 0.0034 µM | Kd [5]: 0.035 µM

B3: ALZ.4A6 (antibody, V domains shown)
VH: QVQLVQSGAEVKKPGASMRVSCKASGYTYTAYYIHWMRQAPGQGLEWMGWINPHIGSTNYAEKFRGRVTLTRDTSIKTAYMDLDRLTSDDTAIYYCARVRAPRSISGTLNSYGMDVWGQGTTVAVSS
VL: DIVMTQSPSSLSASVGDRVVITCRASLRIGTFLNWYQQTQGRAPKLLVSSASTLQSGVPSRFSGSGSGTDFTLTINSLQPEDFATYYCQQSYSTTWTFGQGTKVELK
notes: as for B1
Kd [2]: 0.011 µM | Kd [3]: 1.3 µM | Kd [4]: 0.016 µM
